Experimental data reported in PMC29063.

Target: GST-p35-C/EBPβ
Assay: pull-down

B1: Elk-1 (wild type), in vitro translated (natural protein)
chain: MDPSVTLWQFLLQLLREQGNGHIISWTSRDGGEFKLVDAEEVARLWGLRKNKTNMNYDKLSRALRYYYDKNIIRKVSGQKFVYKFVSYPEVAGCSTEDCPPQPEVSVTSTMPNVAPAAIHAAPGDTVSGKPGTPKGAGMAGPGGLARSSRNEYMRSGLYSTFTIQSLQPQPPPHPRPAVVLPSAAPAGAAAPPSGSRSTSPSPLEACLEAEEAGLPLQVILTPPEAPNLKSEELNVEPGLGRALPPEVKVEGPKEELEVAGERGFVPETTKAEPEVPPQEGVPARLPAVVMDTAGQAGGHAASSPEISQPQKGRKPRDLELPLSPSLLGGPGPERTPGSGSGSGLQAPGPALTPSLLPTHTLTPVLLTPSSLPPSIHFWSTLSPIAPRSPAKLSFQFPSSGSAQVHIPSISVDGLSTPVVLSPGPQKP
modifications: labeled with [35S] methionine
percent of input retained on the beads: 35 to 45%
